Reference: US20070196371A1 (ZymoGenetics, published 2007)

Assays:
[1] = target: T1, human IL-17RC (IL-17RCx1), full length on transfected cells (human, UniProt Q8NAC3 21-791); test: cell-based or functional assay
T1 sequence: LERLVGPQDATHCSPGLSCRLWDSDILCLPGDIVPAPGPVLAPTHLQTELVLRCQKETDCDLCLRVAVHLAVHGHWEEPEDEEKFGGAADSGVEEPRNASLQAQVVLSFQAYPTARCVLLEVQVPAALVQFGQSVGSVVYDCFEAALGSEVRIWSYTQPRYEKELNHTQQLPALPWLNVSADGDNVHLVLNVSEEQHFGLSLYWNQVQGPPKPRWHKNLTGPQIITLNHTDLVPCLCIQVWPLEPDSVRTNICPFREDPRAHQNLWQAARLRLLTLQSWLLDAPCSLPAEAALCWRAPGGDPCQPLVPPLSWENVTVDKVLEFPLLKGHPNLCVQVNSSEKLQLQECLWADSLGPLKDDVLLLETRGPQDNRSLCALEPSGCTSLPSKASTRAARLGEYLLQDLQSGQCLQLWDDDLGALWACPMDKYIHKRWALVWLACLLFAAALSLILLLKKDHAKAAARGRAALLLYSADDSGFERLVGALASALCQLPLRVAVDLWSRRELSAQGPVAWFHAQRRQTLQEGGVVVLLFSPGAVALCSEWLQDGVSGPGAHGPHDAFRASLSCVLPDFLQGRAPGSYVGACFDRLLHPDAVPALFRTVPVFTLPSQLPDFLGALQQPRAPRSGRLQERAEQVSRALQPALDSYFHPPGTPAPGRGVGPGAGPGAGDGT

[2] = target: T2, mouse IL-17RCx1, on transfected cells (mouse, UniProt Q8K4C2 22-698); test: FACS, biotinylated cytokine on transfected cells; (-) = no significant change in fluorescence
T2 construct: also called murine IL-17RCx1; IL-17RCx1 (mouse)
T2 sequence: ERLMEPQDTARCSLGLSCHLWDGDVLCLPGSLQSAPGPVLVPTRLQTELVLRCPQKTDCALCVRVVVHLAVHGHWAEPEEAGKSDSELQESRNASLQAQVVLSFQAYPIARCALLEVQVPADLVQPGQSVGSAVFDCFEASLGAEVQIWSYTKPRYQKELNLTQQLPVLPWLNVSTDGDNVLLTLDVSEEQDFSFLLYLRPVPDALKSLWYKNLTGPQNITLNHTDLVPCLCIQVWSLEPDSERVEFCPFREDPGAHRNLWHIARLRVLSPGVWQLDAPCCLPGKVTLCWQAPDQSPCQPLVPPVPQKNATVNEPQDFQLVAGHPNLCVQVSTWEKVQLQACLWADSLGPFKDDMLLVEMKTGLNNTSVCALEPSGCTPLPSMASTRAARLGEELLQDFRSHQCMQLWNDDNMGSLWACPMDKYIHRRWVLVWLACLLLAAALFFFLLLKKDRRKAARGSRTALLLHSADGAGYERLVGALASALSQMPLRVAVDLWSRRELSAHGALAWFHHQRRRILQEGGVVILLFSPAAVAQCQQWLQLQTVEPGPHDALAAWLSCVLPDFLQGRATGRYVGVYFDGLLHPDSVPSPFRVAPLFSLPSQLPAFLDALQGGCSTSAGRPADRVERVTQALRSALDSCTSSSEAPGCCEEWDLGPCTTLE

[3] = target: T3, human IL-17RCx4, on transfected 293T cells (human, UniProt Q8NAC3 21-791); test: FACS, biotinylated cytokine on transiently transfected 293T cells; (-) = no significant change in fluorescence
T3 construct: Splice variant that includes exons 7, 8 and 12
T3 sequence: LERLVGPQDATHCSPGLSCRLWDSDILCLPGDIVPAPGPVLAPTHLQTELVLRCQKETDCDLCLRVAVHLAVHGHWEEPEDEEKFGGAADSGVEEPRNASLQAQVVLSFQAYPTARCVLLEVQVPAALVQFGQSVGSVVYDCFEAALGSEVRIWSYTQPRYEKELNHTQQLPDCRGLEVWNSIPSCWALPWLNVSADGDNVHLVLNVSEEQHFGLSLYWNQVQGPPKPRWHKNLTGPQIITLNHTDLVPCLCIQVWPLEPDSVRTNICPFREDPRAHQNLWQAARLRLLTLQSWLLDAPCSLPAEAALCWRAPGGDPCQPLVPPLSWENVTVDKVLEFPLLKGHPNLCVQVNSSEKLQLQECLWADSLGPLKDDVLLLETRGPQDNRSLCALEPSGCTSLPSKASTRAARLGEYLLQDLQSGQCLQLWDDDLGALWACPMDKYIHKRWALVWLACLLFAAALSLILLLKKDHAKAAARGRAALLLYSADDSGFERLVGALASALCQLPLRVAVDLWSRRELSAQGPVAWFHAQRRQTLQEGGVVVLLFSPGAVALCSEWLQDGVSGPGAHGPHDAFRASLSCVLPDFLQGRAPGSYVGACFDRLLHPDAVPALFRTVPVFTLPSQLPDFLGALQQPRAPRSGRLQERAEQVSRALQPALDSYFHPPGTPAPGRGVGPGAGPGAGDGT
Text: (§1) Those chosen for this analysis also differed in their inclusion or exclusion of exon 7 and exon 12. These variants were designated human IL-17RCx1, IL-17RCx4, IL-17RCx2, and IL-17RCx7 and these are also illustrated in Table 6 below.

[4] = target: T1, human IL-17RC (IL-17RCx1), full length …; test: as above
Text: as §1

[5] = target: T4, human IL-17 receptor (IL-17R), on transfected cells (human, UniProt Q96F46 33-320); test: cell-based or functional assay
T4 sequence: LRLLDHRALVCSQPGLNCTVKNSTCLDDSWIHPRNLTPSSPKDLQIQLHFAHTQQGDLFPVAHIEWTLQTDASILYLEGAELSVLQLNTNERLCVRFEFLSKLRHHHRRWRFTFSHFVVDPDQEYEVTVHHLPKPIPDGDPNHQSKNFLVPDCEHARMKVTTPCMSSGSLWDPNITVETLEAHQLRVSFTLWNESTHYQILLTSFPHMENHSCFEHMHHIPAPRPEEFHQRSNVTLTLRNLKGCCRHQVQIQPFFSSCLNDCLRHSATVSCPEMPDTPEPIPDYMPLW

[6] = target: T1, human IL-17RC (IL-17RCx1), full length …; test: radioligand competition, 100x molar cold competitor, BHK hIL-17RC cells
Method: (§2) Cold competitors were added in 100 fold molar excess. […] Wells were incubated on ice for 1-hour followed by two washes with PBS (Invitrogen 20012-027) and one wash with a high salt solution (1.5M NaCL, 50 mM HEPES pH 7.4). Wells were extracted with 500 ul of 0.8M NaOH for 30 min. at room temperature and counts per minute were measured in a gamma counter (Packard Cobra II A5005).

[7] = target: T2, mouse IL-17RCx1, on transfected cells; test: FACS, biotinylated cytokine on transfected cells; (+) = significant increase in fluorescence
[8] = target: T1, human IL-17RC (IL-17RCx1), full length …; test: saturation radioligand binding on BHK hIL-17RC cells, experiment 1; high affinity site of two-site fit
Method: as §2
(§3) Transfected BHK cells were plated into 24-well dishes as in one. […] Separately, 100 fold molar excess of cold ligand was added at each dilution point. Cells were washed, extracted and counted as in one. Specific counts per minute were plotted against concentration of radiolabeled ligand added by subtracting the 100 fold excess counts from the uncompleted counts at each dilution point. These normalized data were plotted to generate saturation binding curves for each combination of radiolabeled ligand and transfected BHK cells.

[9] = target: T1, human IL-17RC (IL-17RCx1), full length …; test: saturation radioligand binding on BHK hIL-17RC cells, experiment 2; high affinity site of two-site fit
Method: as §2, §3

[10] = target: T1, human IL-17RC (IL-17RCx1), full length …; test: saturation radioligand binding on BHK hIL-17RC cells, experiment 3; high affinity site of two-site fit
Method: as §2, §3

[11] = target: T3, human IL-17RCx4, on transfected 293T …; test: FACS, biotinylated cytokine on transiently transfected 293T cells; (+) = significant increase in fluorescence

B1: mouse IL-17A (ligand)
chain: AAIIPQSSACPNTEAKDFLQNVKVNLKVFNSLGAKVSSRRPSDYLNRSTSPWTLHRNEDPDRYPSVIWEAQCRHQRCVNAEGKLDHHMNSVLIQQEILVLKREPESCPFTFRVEKMLVGVGCTCVASIVRQAA
modifications: biotinylated in Example 31
notes: also called murine IL-17A; mIL-17A
[1]
  EC50, ap1/nfkb luciferase in nih3t3/kz142.8/hcytor14x1 pool: ~4 ng/mL
[2]
  binding result: no binding
[3]
  binding result: no binding
[4]
  binding result: no binding

B2: human IL-17F (ligand)
chain: RKIPKVGHTFFQKPESCPPVPGGSMKLDIGIINENQRVSMSRNIESRSTSPWNYTVTWDPNRYPSEVVQAQCRNLGCINAQGKEDISMNSVPIQQETLVVRRKHQGCSVSFQLEKVLVTVGCTCVTPVIHHVQ
modifications: biotinylated (flow cytometry) or 125I-radiolabeled by the iodobead method (radioligand assays); unlabeled as cold competitor; expressed from cDNA in COS cells in the secretion trap
notes: also called huIL-17F; hIL-17F
[1]
  EC50, ap1/nfkb luciferase in hIL-17RCX1 recombinant line: 0.61 ng/mL
  fold more potent EC50 in the recombinant line vs the parental line: 17 fold
[5]
  EC50, ap1/nfkb luciferase in hIL-17RA recombinant line: 12.4 ng/mL
[6]
  fold reduction of 125I IL-17A binding: ~7 fold
  fold reduction of 125I IL-17F binding: ~5 fold
[7]
  binding result: binds
[8]
  Kd: 0.05 nM
[9]
  Kd: 0.06 nM
[10]
  Kd: 0.08 nM

B3: mouse IL-17F (ligand)
chain: RKNPKAGVPALQKAGNCPPLEDNTVRVDIRIFNQNQGISVPREFQNRSSSPWDYNITRDPHRFPSEIAEAQCRHSGCINAQGQEDSTMNSVAIQQEILVLRREPQGCSNSFRLEKMLLKVGCTCVKPIVHQAA
modifications: biotinylated in Example 31
notes: also called murine IL-17F; MuIL-17F
[2]
  binding result: no binding
[11]
  binding result: binds
[4]
  binding result: no binding
